Data taken from patent US20130029913A1, “ARTIFICIAL PLATELETS” (priority 2005, published 2013).
Primed or numbered codes have the meaning given here. No end group written: not given here. MAL″ = maleimide moiety on the C-terminal lysine; MAL = maleimide moiety

Legend:
Fibrinogen [1] = target: T1, Fibrinogen (Homo sapiens, UniProt P02679); test: Binding of fibrinogen to peptide-linked microspheres in absence and presence of thrombin (flow cytometry)
Method: Peptide A linked microspheres, and Peptide B linked microspheres were prepared as described in Example 2, and were mixed for 30 minutes with buffer or thrombin as shown in the table below:
The microspheres were then recovered by centrifuging at 1800 g for 10 minutes. The microspheres were resuspended in 100 μl Tris to give a final concentration of 5 mg/ml. 10 μl of Hirudin 100 U/ml was added to inhibit residual thrombin.
180 μl Fibrinogen at a concentration 0.1 mg/ml was added to 20 μl of Peptide A or Peptide B linked microspheres and mixed for 1 hr.
Fibrinogen binding was measured as follows. 5 μl microspheres were added to 50 μl HEPES buffer pH […] FITC labelled antibody to human fibrinogen was added and mixed for 20 minutes. The reaction was stopped with addition of 0.2% Formyl saline. Bound fluorescence was measured using a Beckman Coulter XL MCL Flow Cytometer.

plasma [2] = test: Clot formation in plasma after microparticles pre-incubated with thrombin (turbidimetric, PAP-4); format: biochemical
Method: Clot formation as monitored in plasma with peptide C modified microparticles that had been pre-exposed to thrombin in a buffer. Microparticle clot formation in plasma was determined turbidimetrically using the Platelet Aggregation Profiler® PAP-4 (BioData Corporation, PA) as described above.
Peptide C modified microparticles were prepared as described in Example 5 at a stock concentration of 2.5 mg/ml in HBS. Peptide C modified microparticles were pre-incubated with 0.6 U/ml thrombin for 1 h and then hirudin (10 U/ml) was added to inhibit thrombin activity. The reactions were centrifuged at 9300 g for 5 min then resuspended in HBS at 2.5 mg/ml. The baseline optical density was set with plasma, which had been prepared from citrated blood. Plasma samples (205 μl) were pre-warmed to 37° C. for 1 min before the addition of microparticles (25 μl), with the stir bar rate set at 900 rpm. After two minutes 20 uL of thrombin stock solution was added to the reaction to give a final thrombin concentration of 0.25 U/ml.

Thrombocytopenic blood = test: Platelet aggregation in thrombocytopenic blood activated by ADP (impedance aggregometer); format: cell-based; conditions: microparticles pre-exposed to thrombin, 6 min
Method: Platelet aggregation in the presence of peptide C modified microparticles was measured using a Multiplatelet impedance aggregometer (Multiplate® Dynabyte medical, Munich).
Peptide C modified microparticles were prepared as described in Example 5 at a stock concentration of 2.5 mg/ml in HBS. The microparticles (0.75 mg) were pre-incubated for 1 h with 1 U/ml human thrombin (Sigma) in HBS (total volume 0.3 ml). To inhibit thrombin activity hirudin (Sigma) was added at a final concentration of 5 U/ml. The reaction was centrifuged at 9300 g for 5 min and the supernatant was discarded. The microparticles were resuspended in HBS to a concentration of 2.5 mg/ml.
Thrombocytopenic blood was prepared from citrated blood as follows:
Platelets were removed by centrifuging whole blood at 163 g for 20 min and discarding the platelet rich upper layer. The upper platelet rich layer was replaced by plasma that was isolated as the supernatant after centrifuging whole blood at 1800 g for 30 min.
To monitor electrical impedance; to each electrode well 0.3 ml of blood was incubated at 37° C. with microparticles (0.15 mg) and saline to give a total volume of 0.6 ml. Aggregation was recorded immediately after the addition of 30 μl of activator adenosine diphosphate solution (0.1 mM). Aggregation was recorded for 6 min; results in FIG. 9 are expressed in arbitrary units of final aggregation.

Fibrinogen [3] = target: T1, Fibrinogen; test: Fibrinogen binding to microparticles after incubation with or without thrombin (flow cytometry); parameters: purchased Scottish National Blood Transfusion Service (SNBTS)
Method: (§1) Microparticles were mixed with fibrinogen solution after exposure to thrombin to confirm that fibrinogen-binding sequence is exposed by thrombin.
(§2) Microparticles at 0.7, 5 or 10 mg/ml were incubated with 0-0.64 U/mL thrombin at 37° C. after 2 min the thrombin was inhibited by the addition of hirudin (Sigma) at a final concentration of 10 U/mL. Microparticles were centrifuged at 9300 g for 5 min and resuspended in HBS to give 14 mg/mL. The microparticles were diluted 10-fold in 0.1 mg/mL human fibrinogen (Scottish National Blood Transfusion Service: SNBTS) and incubated at room temperature for 1 h. The amount of fibrinogen bound was determined by flow cytometry with a polyclonal antibody rabbit-anti-human fibrinogen-FITC (Dako Cytomation).

Fibrinogen [4] = target: T1, Fibrinogen; test: Clot formation in fibrinogen in response to thrombin (turbidity, PAP-4); format: biochemical; parameters: purchased SNBTS
Method: Clot formation was determined by a […] in turbidity using the Platelet Aggregation Profiler® PAP-4 (BioData Corporation, PA) as follows; Peptide C linked microparticles were prepared as described in Example 5 at a stock concentration of 2.5 mg/ml in Hepes buffered saline (HBS). The baseline optical density was set with fibrinogen (SNBTS) solution at 3 mg/ml in HBS. Fibrinogen solutions (205 μl) were pre-warmed to 37° C. for 1 min before the addition of microparticles (25 μl), with the stir bar rate set at 900 rpm. After two min 20 μL of human thrombin (Sigma) stock solution was added to give a final concentration of 0.032 U/ml.

plasma [5] = test: Clot formation in plasma in response to thrombin (turbidimetric, PAP-4); format: biochemical
Method: Microparticle clot formation in plasma was determined turbidimetrically using the Platelet Aggregation Profiler® PAP-4 (BioData Corporation, PA) as described above.
Peptide C modified microparticles were prepared as described in Example 5 at a stock concentration of 2.5 mg/ml in HBS. The baseline optical density was set with plasma, which had been prepared from citrated blood. Plasma samples (205 μl) were pre-warmed to 37° C. for 1 min before the addition of microparticles (25 μl), with the stir bar rate set at 900 rpm. After two minutes 20 uL of human thrombin (Sigma) stock solution was added to the reaction to give a final thrombin concentration of 0.25 U/ml.

[6] = target: T2, human fibrinogen (Scottish National Blood Transfusion Service: SNBTS) (human, UniProt P02671 20-629; P02675 31-491; P02679 27-437, limits assumed); test: flow cytometry with rabbit anti-human fibrinogen-FITC on microparticles
T2 sequence (looked up) 1: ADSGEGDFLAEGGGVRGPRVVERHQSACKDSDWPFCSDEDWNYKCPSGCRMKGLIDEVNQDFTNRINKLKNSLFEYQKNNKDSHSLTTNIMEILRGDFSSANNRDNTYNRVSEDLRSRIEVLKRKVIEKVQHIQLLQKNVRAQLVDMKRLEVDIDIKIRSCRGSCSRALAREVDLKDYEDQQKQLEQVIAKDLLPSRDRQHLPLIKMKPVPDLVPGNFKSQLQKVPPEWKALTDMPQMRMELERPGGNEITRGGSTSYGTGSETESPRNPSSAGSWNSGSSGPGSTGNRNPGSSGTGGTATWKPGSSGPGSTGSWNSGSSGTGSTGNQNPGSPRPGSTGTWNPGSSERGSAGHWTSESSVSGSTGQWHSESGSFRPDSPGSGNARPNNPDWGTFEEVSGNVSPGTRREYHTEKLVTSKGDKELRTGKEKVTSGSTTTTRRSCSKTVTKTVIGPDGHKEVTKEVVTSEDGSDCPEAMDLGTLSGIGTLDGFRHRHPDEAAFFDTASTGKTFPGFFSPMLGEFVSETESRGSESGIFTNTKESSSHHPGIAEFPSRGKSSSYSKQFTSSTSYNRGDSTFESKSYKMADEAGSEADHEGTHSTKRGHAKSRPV
T2 sequence (looked up) 2: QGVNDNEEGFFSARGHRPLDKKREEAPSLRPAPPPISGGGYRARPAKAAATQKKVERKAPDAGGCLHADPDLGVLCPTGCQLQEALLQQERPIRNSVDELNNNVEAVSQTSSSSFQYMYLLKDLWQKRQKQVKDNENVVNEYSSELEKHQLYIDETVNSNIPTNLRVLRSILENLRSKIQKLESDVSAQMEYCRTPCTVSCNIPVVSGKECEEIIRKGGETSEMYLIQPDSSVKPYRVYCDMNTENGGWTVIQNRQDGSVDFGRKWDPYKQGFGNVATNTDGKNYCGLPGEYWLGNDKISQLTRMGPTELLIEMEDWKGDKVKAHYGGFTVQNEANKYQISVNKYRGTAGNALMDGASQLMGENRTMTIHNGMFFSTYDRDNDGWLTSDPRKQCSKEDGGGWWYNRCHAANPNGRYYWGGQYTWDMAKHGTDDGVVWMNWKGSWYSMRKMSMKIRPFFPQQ
T2 sequence (looked up) 3: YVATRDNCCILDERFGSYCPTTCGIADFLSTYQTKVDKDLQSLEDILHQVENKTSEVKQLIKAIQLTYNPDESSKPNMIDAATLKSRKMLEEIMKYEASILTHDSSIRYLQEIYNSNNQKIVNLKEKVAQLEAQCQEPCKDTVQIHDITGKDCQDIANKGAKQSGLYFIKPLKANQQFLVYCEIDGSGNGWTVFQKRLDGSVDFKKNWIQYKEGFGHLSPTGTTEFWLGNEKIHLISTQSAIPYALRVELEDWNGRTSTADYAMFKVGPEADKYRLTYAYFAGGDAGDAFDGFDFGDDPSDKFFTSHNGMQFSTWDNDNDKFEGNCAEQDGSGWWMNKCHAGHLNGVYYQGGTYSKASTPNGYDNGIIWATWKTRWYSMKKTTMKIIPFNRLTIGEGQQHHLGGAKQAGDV
Method: as §1, §2

T1 sequence (P02671 20-644 isoform P02671-2 partner limits assumed, one chain of several): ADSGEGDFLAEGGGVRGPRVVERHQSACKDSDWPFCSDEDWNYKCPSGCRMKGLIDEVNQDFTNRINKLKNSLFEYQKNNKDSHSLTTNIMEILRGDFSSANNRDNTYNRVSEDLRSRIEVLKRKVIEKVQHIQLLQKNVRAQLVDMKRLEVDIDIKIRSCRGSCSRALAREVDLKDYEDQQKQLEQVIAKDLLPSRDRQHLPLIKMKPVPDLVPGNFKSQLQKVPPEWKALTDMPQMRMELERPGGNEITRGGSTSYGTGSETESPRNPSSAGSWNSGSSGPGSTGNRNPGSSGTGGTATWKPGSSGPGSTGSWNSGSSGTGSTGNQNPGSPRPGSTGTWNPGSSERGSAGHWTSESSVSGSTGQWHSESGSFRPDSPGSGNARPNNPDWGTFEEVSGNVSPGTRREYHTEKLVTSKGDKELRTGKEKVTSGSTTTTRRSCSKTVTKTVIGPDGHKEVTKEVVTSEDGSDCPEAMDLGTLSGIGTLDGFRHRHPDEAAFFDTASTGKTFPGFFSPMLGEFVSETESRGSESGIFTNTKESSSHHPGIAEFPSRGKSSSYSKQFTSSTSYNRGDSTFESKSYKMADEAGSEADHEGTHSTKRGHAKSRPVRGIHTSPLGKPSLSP

H2N-GPRPG^6C (H-GPRPGGGGGGC; also: cross-linked to human albumin microspheres) [Peptide B, reference compound]
fibrinogen binding (in words) (Fibrinogen [1]; absence of thrombin): bound fibrinogen | fibrinogen binding (in words) (Fibrinogen [1]; presence of thrombin): bound fibrinogen

H2N-LVPRGPRPG^5K-MAL (H-LVPRGPRPGGGGGK-{MAL}; also: MAL maleimide linked to human albumin microparticles) [peptide C]
clot formation in plasma (plasma [2]; exposed to thrombin both before (0.6 U/ml, 1 h) and during (0.25 U/ml) incubation with plasma): clot formation occurs | clot formation in plasma (plasma [2]; without thrombin exposure, over the 20 min period): did not result in clot formation | electrical impedance (final aggregation) vs TCB without microparticles or blank microparticles (Thrombocytopenic blood): greater electrical impedance | amount of fibrinogen bound to microparticles (Fibrinogen [3]; increasing thrombin concentration (0-0.64 U/mL), all three microparticle concentrations): increased | fibrinogen binding (in words) (Fibrinogen [3]; without thrombin, microparticles 0.7, 5 or 10 mg/ml): do not bind fibrinogen | clot formation in fibrinogen solution (Fibrinogen [4]; absence of thrombin, fibrinogen 3 mg/ml): neither blank nor microparticles modified with peptide C formed a clot | turbidity decrease (clot formation) vs control unmodified microparticles (Fibrinogen [4]; thrombin 0.032 U/ml added at 2 min): decreased more rapidly | clot formation in plasma vs unmodified control blank microparticles (plasma [5]; thrombin 0.25 U/ml added at the 2 min time point): accelerated clot formation | clot formation in plasma (plasma [5]; without the addition of thrombin): did not form a clot

H2N-LVPRGPRPG^6C (H-LVPRGPRPGGGGGGC; also: cross-linked to human albumin microspheres) [Peptide A]
microspheres that bound fibrinogen (Fibrinogen [1]; first incubated with thrombin (0.16 U/ml, 30 minutes), then mixed with fibrinogen): 86% | microspheres that bound fibrinogen (Fibrinogen [1]; not previously incubated with thrombin, fibrinogen 0.1 mg/ml, 1 hr): 6%

B1: Peptide C (H2N-LVPRGPRPG5K-MAL), fibrinogen binding precursor peptide linked to human albumin microparticles, not exposed to thrombin (peptide)
peptide: H-LVPRGPRPGGGGGK(MAL″)
modifications: also: thioether-linked via maleimide to albumin microparticle sulphydryl
notes: Synthetic peptide immobilised on microparticles of human serum albumin; tested as the intact precursor; also called peptide C modified microparticles; microparticles modified with peptide C
binding result [6]: no binding (tested: 0.1 mg/mL human fibrinogen)
